Experimental data from patent US20250290928A1, “METHOD, KIT AND DEVICE FOR DETECTING EXTRACELLULAR VESICLES” (priority 2022, published 2025).
*: point of attachment. 5FAM = O=C1OC2(c3ccc(O)cc3Oc3cc(O)ccc32)c2ccc(C(=O)*)cc21; TQ2 = quencher

Legend:
[1] = target: T1, MMP14 in the A549-derived extracellular vesicles (Homo sapiens, UniProt P50281); assay: Evaluation of MMP14 activity of A549-derived extracellular vesicles with 96-well plate; type: biochemical; conditions: reporter 5 μM, 37° C.
T1 construct: host or cells: A549 (purified exosomes)
Experimental: The MMP14 activity was evaluated with a 96-well plate (manufactured by Thermo Fisher Scientific Inc., model number: 137101). A fluorescence intensity was measured with a fluorescence plate reader (Synergy MX, manufactured by BioTek Instruments, Inc.) at […] every 5 min for 1 hour. For measurement wavelengths, an excitation wavelength of 485±20 nm and a fluorescence wavelength of 528±20 nm were used.
With regard to the COLO201-derived extracellular vesicles, the concentration of the solution was set to x1/10, and 3-fold serial dilution was performed to prepare standard samples with three concentrations.
50 μL of the MMP14 detection solution was added to 50 μL of each of the samples, a reaction was performed at 37° C., and MMP14 activity was evaluated.
The concentration of the solution is 20 μg/mL. […] The concentration of the solution was set to x1, and 10-fold serial dilution was performed to prepare standard samples with five concentrations.
The concentration of the solution is 10 μg/mL.
Evaluation was performed in the same manner as in Example 1 except that the reaction temperature was set to 23° C. ΔRFU was calculated by subtracting the measured value of the sample for BG measurement from the measured value of each of the samples.

[2] = target: T2, MMP14 in the MDA-MB-231-derived extracellular vesicles (Homo sapiens, UniProt P50281); assay: Digital detection through MMP14 activity of MDA-MB-231-derived extracellular vesicles captured on Tim4-immobilized magnetic particles; type: biochemical
T2 construct: in terms of intact MMP14 with a molecular weight of 70 kDa
Experimental: Magnetic particles included in PS Capture (trademark) Exosome Flow Cytometry Kit (manufactured by FUJIFILM Corporation) were used as magnetic particles. In this kit, binding of an extracellular vesicle to a Tim4-immobilized magnetic particle is utilized.
800 μL of Exosome Capture Beads were aliquoted in a 1.5 mL microtube, vortexed for 5 seconds, spun down in a benchtop centrifuge, and then placed on a magnetic stand. After still standing for 1 minute, the supernatant was removed by pipetting. 1 mL of x1 WB (+Enhancer) prepared from x10 Washing Buffer and x100 Exosome Binding Enhancer included in the kit was added to the residue, the mixture was vortexed for 5 seconds, spun down in a benchtop centrifuge, and then placed on a magnetic stand. After still standing for 1 minute, the supernatant was removed by pipetting. This operation was repeated three times.
800 μL of the buffer (4) was added to the magnetic particle pellets, and the mixture was vortexed for 30 seconds to provide a homogeneous magnetic particle suspension. 60 μL of the suspension was aliquoted into each of twelve 1.5 mL microtubes.
The concentration of the solution is 4 μg/mL. […] Further, the concentration of the x1/5 solution was set to be the highest concentration, and 10-fold dilution was performed in four stages. Thus, 10-fold dilution samples in a total of five stages were obtained.
The magnetic particle suspension that had been aliquoted in each amount of 60 μL in the section “(Preparation of Particles)” was vortexed for 5 seconds, spun down in a benchtop centrifuge, and then placed on a magnetic stand. After still standing for 1 minute, the supernatant was removed by pipetting.
After that, the above-mentioned mixed solution was spun down in a benchtop centrifuge, then placed on a magnetic stand, and left to stand still for 1 minute. After that, the supernatant was removed by pipetting, 300 μL of the buffer (4) was added to the residue, and the mixture was vortexed for 5 seconds. The mixture was spun down in a benchtop centrifuge, then placed on a magnetic stand, and left to stand still for 1 minute. The same operation was further repeated twice.
For detection of MMP14 activity, 1 mM Custom #1 and Custom #2 were diluted with the buffer (4) to prepare MMP14 detection solutions containing 5 μM Custom #1 and Custom #2, respectively.
The supernatant of the mixed solution of the magnetic particles and the extracellular vesicles subjected to the washing was removed by pipetting, and 60 μL of each of the MMP14 detection solutions was added to each of the magnetic particle pellets to prepare a reaction solution for wells.
Magnosphere (trademark) MS300/Streptavidin (manufactured by JSR Corporation) (hereinafter abbreviated as “MS300S”) was used as magnetic particles. The magnetic particles were modified with Tim4 through use of Biotin-labeled Exosome Capture included in MagCapture (trademark) Exosome Isolation Kit PS Ver. 2 (manufactured by FUJIFILM Corporation) (hereinafter abbreviated as “PS2”) to prepare Tim4-immobilized magnetic particles.
10 μL of Biotin-labeled Exosome Capture was added to the suspension, and the mixture was vortexed for 5 seconds so that the contents were mixed. The mixture was subjected to a reaction for 10 minutes while the contents were mixed by inversion at room temperature with a rotator. After that, the resultant was spun down in a benchtop centrifuge, and then placed on a magnetic stand. After still standing for 1 minute, the supernatant was removed by pipetting. 500 μL of x1 I/WB (±Enhancer) was added to the residue, and the mixture was vortexed for 5 seconds, spun down in a benchtop centrifuge, and then placed on a magnetic stand. After still standing for 1 minute, the supernatant was removed by pipetting. This operation was further repeated twice. […]

[3] = Example 49, PS Capture Tim4 particles, 30° C., 4 h
[4] = Example 50, MS300S Tim4 particles, 30° C., 4 h
[5] = Table 52, particles modified with Tim4, MB231 concentration x1/5, 4 hr
[6] = Table 52, particles modified with Tim4, MB231 concentration x1/50, 4 hr
[7] = Table 52, particles modified with Tim4, MB231 concentration x1/500, 4 hr
[8] = Table 52, particles modified with Tim4, MB231 concentration x1/5,000, 4 hr
[9] = Table 52, particles modified with Tim4, MB231 concentration x1/50,000, 4 hr
[10] = Table 53, BG subtracted, MB231 concentration x1/5, 4 hr
[11] = Table 53, BG subtracted, MB231 concentration x1/50, 4 hr
[12] = Table 53, BG subtracted, MB231 concentration x1/500, 4 hr
[13] = Table 53, BG subtracted, MB231 concentration x1/5,000, 4 hr
[14] = Table 53, BG subtracted, MB231 concentration x1/50,000, 4 hr
[15] = Table 54, particles immobilized with Tim4, MB231 concentration x1/5, 4 hr
[16] = Table 54, particles immobilized with Tim4, MB231 concentration x1/25, 4 hr
[17] = Table 54, particles immobilized with Tim4, MB231 concentration x1/125, 4 hr
[18] = Table 54, particles immobilized with Tim4, MB231 concentration x1/625, 4 hr
[19] = Table 54, particles immobilized with Tim4, MB231 concentration x1/3,125, 4 hr
[20] = Table 54, particles immobilized with Tim4, MB231 concentration x1/15,625, 4 hr
[21] = Table 54, particles immobilized with Tim4, MB231 concentration x1, 4 hr
[22] = Table 55, BG subtracted, MB231 concentration x1/5, 4 hr
[23] = Table 55, BG subtracted, MB231 concentration x1/25, 4 hr
[24] = Table 55, BG subtracted, MB231 concentration x1/125, 4 hr
[25] = Table 55, BG subtracted, MB231 concentration x1/625, 4 hr
[26] = Table 55, BG subtracted, MB231 concentration x1/3,125, 4 hr
[27] = Table 55, BG subtracted, MB231 concentration x1/15,625, 4 hr
[28] = Table 55, BG subtracted, MB231 concentration x1, 4 hr
[29] = Table 56, Particle MS300C, MB231 Present, 24 hours at 23° C.
[30] = Table 56, Particle Simoa, MB231 Present, 24 hours at 23° C.
[31] = Table 53, BG subtracted, MB231 concentration x1, 4 hr

Substance: [5-FAM]GGPLGLAGGK(TQ2)[OH] (5FAM-GGPLGLAGGK(TQ2)-OH) [Custom #2]
- fluorescence intensity at the same extracellular vesicle concentration ([1]; Example 10, buffer (3)): higher than the fluorescence intensity from Custom #1
- number of the extracellular vesicles [2, 3]: 1.18×10^5 /μg of protein
- number of the extracellular vesicles ([2]; Example 50, 6×10^5 particles, 2 μg of protein): 1.77×10^5
- expected value Δλ per particle (value obtained by subtracting BG) at a concentration of x1 [2, 4]: 0.2953
- number of the extracellular vesicles [2, 4]: 8.86×10^4 /μg of protein
- Particle Expected value λ [2, 5]: 0.2744
- Particle Number of positives [2, 5]: 557
- Particle Positive ratio [2, 5]: 0.24
- Particle Expected value λ [2, 6]: 0.09639
- Particle Number of positives [2, 6]: 246
- Particle Positive ratio [2, 6]: 0.09189
- Particle Expected value λ [2, 7]: 0.03784
- Particle Number of positives [2, 7]: 181
- Particle Positive ratio [2, 7]: 0.03714
- Particle Expected value λ [2, 8]: 0.01211
- Particle Number of positives [2, 8]: 37
- Particle Positive ratio [2, 8]: 0.01204
- Particle Expected value λ [2, 9]: 0.00551
- Particle Number of positives [2, 9]: 17
- Particle Positive ratio [2, 9]: 0.00549
- Particle Expected value Δλ [2, 10]: 0.2716
- Particle Δ Number of positives [2, 10]: 552
- Particle Δ Positive ratio [2, 10]: 0.2378
- Particle Expected value Δλ [2, 11]: 0.09434
- Particle Δ Number of positives [2, 11]: 241
- Particle Δ Positive ratio [2, 11]: 0.09003
- Particle Expected value Δλ [2, 12]: 0.03678
- Particle Δ Number of positives [2, 12]: 176
- Particle Δ Positive ratio [2, 12]: 0.03611
- Particle Expected value Δλ [2, 13]: 0.01047
- Particle Δ Number of positives [2, 13]: 32
- Particle Δ Positive ratio [2, 13]: 0.01041
- Particle Expected value Δλ [2, 14]: 0.00388
- Particle Δ Number of positives [2, 14]: 12
- Particle Δ Positive ratio [2, 14]: 0.00388
- Particle Expected value λ [2, 15]: 0.1892
- Particle Number of positives [2, 15]: 1,235
- Particle Positive ratio [2, 15]: 0.1723
- Particle Expected value λ [2, 16]: 0.1044
- Particle Number of positives [2, 16]: 643
- Particle Positive ratio [2, 16]: 0.09911
- Particle Expected value λ [2, 17]: 0.06097
- Particle Number of positives [2, 17]: 385
- Particle Positive ratio [2, 17]: 0.05915
- Particle Expected value λ [2, 18]: 0.03309
- Particle Number of positives [2, 18]: 225
- Particle Positive ratio [2, 18]: 0.03255
- Particle Expected value λ [2, 19]: 0.02229
- Particle Number of positives [2, 19]: 166
- Particle Positive ratio [2, 19]: 0.02204
- Particle Expected value λ [2, 20]: 0.01639
- Particle Number of positives [2, 20]: 88
- Particle Positive ratio [2, 20]: 0.01625
- Particle Expected value λ [2, 21]: 0.2912
- Particle Number of positives [2, 21]: 1,744
- Particle Positive ratio [2, 21]: 0.2526
- Particle Expected value Δλ [2, 22]: 0.1853
- Particle Δ Number of positives [2, 22]: 1,212
- Particle Δ Positive ratio [2, 22]: 0.1691
- Particle Expected value Δλ [2, 23]: 0.1004
- Particle Δ Number of positives [2, 23]: 620
- Particle Δ Positive ratio [2, 23]: 0.09556
- Particle Expected value Δλ [2, 24]: 0.05722
- Particle Δ Number of positives [2, 24]: 362
- Particle Δ Positive ratio [2, 24]: 0.05562
- Particle Expected value Δλ [2, 25]: 0.02966
- Particle Δ Number of positives [2, 25]: 202
- Particle Δ Positive ratio [2, 25]: 0.02922
- Particle Expected value Δλ [2, 26]: 0.01917
- Particle Δ Number of positives [2, 26]: 143
- Particle Δ Positive ratio [2, 26]: 0.01899
- Particle Expected value Δλ [2, 27]: 0.01208
- Particle Δ Number of positives [2, 27]: 65
- Particle Δ Positive ratio [2, 27]: 0.01201
- Particle Expected value Δλ [2, 28]: 0.2868
- Particle Δ Number of positives [2, 28]: 1,721
- Particle Δ Positive ratio [2, 28]: 0.2493
- Particle Expected value λ [2, 29]: 0.2899
- Particle Positive ratio [2, 29]: 0.2517
- Particle Expected value λ [2, 30]: 0.3046
- Particle Positive ratio [2, 30]: 0.2626

Substance: [5-FAM]GRIGFLRTAK(TQ2)[OH] (5FAM-GRIGFLRTAK(TQ2)-OH) [Custom #1]
- extracellular vesicle concentration at which MMP14 activity was able to be detected with a 96-well plate ([1]; Example 21, buffer (4)): ≥ 10 µg/mL
- number of the extracellular vesicles ([2]; Example 49, 6×10^5 particles, 3 μg of protein at x1): 1.04×10^6
- expected value Δλ per particle (value obtained by subtracting BG) at a concentration of x1 [2, 3]: 1.7373
- number of the extracellular vesicles [2, 3]: 3.47×10^5 /μg of protein
- Particle Expected value λ [2, 5]: 0.831
- Particle Number of positives [2, 5]: 1,240
- Particle Positive ratio [2, 5]: 0.5644
- Particle Expected value λ [2, 6]: 0.06966
- Particle Number of positives [2, 6]: 165
- Particle Positive ratio [2, 6]: 0.06729
- Particle Expected value λ [2, 7]: 0.03312
- Particle Number of positives [2, 7]: 89
- Particle Positive ratio [2, 7]: 0.03258
- Particle Expected value λ [2, 8]: 0.01344
- Particle Number of positives [2, 8]: 41
- Particle Positive ratio [2, 8]: 0.01335
- Particle Expected value λ [2, 9]: 0.01169
- Particle Number of positives [2, 9]: 30
- Particle Positive ratio [2, 9]: 0.01162
- Particle Expected value Δλ [2, 11]: 0.05749
- Particle Δ Number of positives [2, 11]: 137
- Particle Δ Positive ratio [2, 11]: 0.05587
- Particle Expected value Δλ [2, 12]: 0.02258
- Particle Δ Number of positives [2, 12]: 61
- Particle Δ Positive ratio [2, 12]: 0.02233
- Particle Expected value Δλ [2, 13]: 0.00424
- Particle Δ Number of positives [2, 13]: 13
- Particle Δ Positive ratio [2, 13]: 0.00423
- Particle Expected value Δλ [2, 14]: 0.00078
- Particle Δ Number of positives [2, 14]: 2
- Particle Δ Positive ratio [2, 14]: 0.00077
- Particle Expected value Δλ [2, 31]: 0.8022
- Particle Δ Number of positives [2, 31]: 1,212
- Particle Δ Positive ratio [2, 31]: 0.5517
